Results as given in publication PMC5183740.

Molecular target: SA-M2e (streptavidin core fused to three consecutive copies of M2e of A/PARIS/2590/2009 (H1N1)) (Streptomyces avidinii | influenza A virus A/PARIS/2590/2009 (H1N1))
Assay: SDS-PAGE of unheated samples

## SA-M2e (streptavidin core fused to three consecutive copies of M2e of A/PARIS/2590/2009 (H1N1))
  stoichiometry N: 4
